In patent US20120208237A1 (Novo Nordisk, published 2012):

How the values were obtained:
[1] = target: recombinant soluble KIR2DL3 (entire extracellular domain, produced in E. coli) (human) (UniProt P43628); experiment: Biacore, KIR2DL3 chip; first Ab 1-4F1 bound
[2] = target: recombinant soluble KIR2DL3 (entire extracellular domain, produced in E. coli) (human) (UniProt P43628); experiment: Biacore, KIR2DL3 chip; first Ab 1-6F1 bound
[3] = target: recombinant soluble KIR2DL3 (entire extracellular domain, produced in E. coli) (human) (UniProt P43628); experiment: Biacore, KIR2DL3 chip; first Ab 1-7F9 bound
[4] = target: recombinant soluble KIR2DL3 (entire extracellular domain, produced in E. coli) (human) (UniProt P43628); experiment: Biacore competition, KIR2DL3 chip; competitor (second Ab) 1-4F1
[5] = target: recombinant soluble KIR2DL3 (entire extracellular domain, produced in E. coli) (human) (UniProt P43628); experiment: Biacore competition, KIR2DL3 chip; competitor (second Ab) 1-6F1
[6] = target: recombinant soluble KIR2DL3 (entire extracellular domain, produced in E. coli) (human) (UniProt P43628); experiment: Biacore competition, KIR2DL3 chip; competitor (second Ab) 1-7F9
[7] = target: recombinant soluble KIR2DL3 (entire extracellular domain, produced in E. coli) (human) (UniProt P43628); experiment: Biacore competition, KIR2DL3 chip; competitor (second Ab) DF200
[8] = target: recombinant soluble KIR2DL3 (entire extracellular domain, produced in E. coli) (human) (UniProt P43628); experiment: Biacore competition, KIR2DL3 chip; competitor (second Ab) Pan2D
[9] = target: recombinant soluble KIR2DL3 (entire extracellular domain, produced in E. coli) (human) (UniProt P43628); experiment: Biacore, KIR2DL3 chip; direct binding (field of first Ab 1-4F1)
[10] = target: recombinant soluble KIR2DL3 (entire extracellular domain, produced in E. coli) (human) (UniProt P43628); experiment: Biacore, KIR2DL3 chip; direct binding (field of first Ab 1-6F1)
[11] = target: recombinant soluble KIR2DL3 (entire extracellular domain, produced in E. coli) (human) (UniProt P43628); experiment: Biacore, KIR2DL3 chip; direct binding (field of first Ab 1-7F9)
[12] = target: recombinant soluble KIR2DL1 (entire extracellular domain, produced in E. coli) (human) (UniProt P43626); experiment: Biacore, KIR2DL1 chip; first Ab EB6 bound
[13] = target: recombinant soluble KIR2DL1 (entire extracellular domain, produced in E. coli) (human) (UniProt P43626); experiment: Biacore, KIR2DL1 chip; first Ab 1-6F1 bound
[14] = target: recombinant soluble KIR2DL1 (entire extracellular domain, produced in E. coli) (human) (UniProt P43626); experiment: Biacore, KIR2DL1 chip; first Ab 1-7F9 bound
[15] = target: recombinant soluble KIR2DL1 (entire extracellular domain, produced in E. coli) (human) (UniProt P43626); experiment: Biacore, KIR2DL1 chip; direct binding (field of first Ab EB6)
[16] = target: recombinant soluble KIR2DL1 (entire extracellular domain, produced in E. coli) (human) (UniProt P43626); experiment: Biacore competition, KIR2DL1 chip; competitor (second Ab) 1-4F1
[17] = target: recombinant soluble KIR2DL1 (entire extracellular domain, produced in E. coli) (human) (UniProt P43626); experiment: Biacore competition, KIR2DL1 chip; competitor (second Ab) 1-6F1
[18] = target: recombinant soluble KIR2DL1 (entire extracellular domain, produced in E. coli) (human) (UniProt P43626); experiment: Biacore competition, KIR2DL1 chip; competitor (second Ab) 1-7F9
[19] = target: recombinant soluble KIR2DL1 (entire extracellular domain, produced in E. coli) (human) (UniProt P43626); experiment: Biacore competition, KIR2DL1 chip; competitor (second Ab) DF200
[20] = target: recombinant soluble KIR2DL1 (entire extracellular domain, produced in E. coli) (human) (UniProt P43626); experiment: Biacore competition, KIR2DL1 chip; competitor (second Ab) Pan2D
[21] = target: recombinant soluble KIR2DL1 (entire extracellular domain, produced in E. coli) (human) (UniProt P43626); experiment: Biacore, KIR2DL1 chip; direct binding (field of first Ab 1-6F1)
[22] = target: recombinant soluble KIR2DL1 (entire extracellular domain, produced in E. coli) (human) (UniProt P43626); experiment: Biacore, KIR2DL1 chip; direct binding (field of first Ab 1-7F9)
[23] = target: recombinant soluble KIR2DL1 (entire extracellular domain, produced in E. coli) (human) (UniProt P43626); experiment: Biacore competition, KIR2DL1 chip; competitor (second Ab) EB6 (self)
[24] = target: recombinant soluble KIR2DL1 (entire extracellular domain, produced in E. coli) (human) (UniProt P43626); experiment: Biacore, KIR2DL1 chip; first Ab 1-6F5 bound
[25] = target: recombinant soluble KIR2DL3 (entire extracellular domain, produced in E. coli) (human) (UniProt P43628); experiment: Biacore, KIR2DL3 chip; first Ab 1-6F5 bound
[26] = target: immobilized KIR2DS1 protein (human) (UniProt Q14954); experiment: Biacore, KIR2DS1 chip; first Ab 1-7F9 bound
[27] = target: recombinant soluble KIR2DL1 (entire extracellular domain, produced in E. coli) (human) (UniProt P43626); experiment: Biacore competition, KIR2DL1 chip; competitor (second Ab) EB6
[28] = target: recombinant soluble KIR2DL1 (entire extracellular domain, produced in E. coli) (human) (UniProt P43626); experiment: Biacore competition, KIR2DL1 chip; competitor (second Ab) 1-6F5
[29] = target: recombinant soluble KIR2DL1 (entire extracellular domain, produced in E. coli) (human) (UniProt P43626); experiment: Biacore, KIR2DL1 chip; direct binding (field of first Ab 1-6F5)
[30] = target: recombinant soluble KIR2DL3 (entire extracellular domain, produced in E. coli) (human) (UniProt P43628); experiment: Biacore competition, KIR2DL3 chip; competitor (second Ab) 1-6F5
[31] = target: recombinant soluble KIR2DL3 (entire extracellular domain, produced in E. coli) (human) (UniProt P43628); experiment: Biacore competition, KIR2DL3 chip; competitor (second Ab) GL183
[32] = target: recombinant soluble KIR2DL3 (entire extracellular domain, produced in E. coli) (human) (UniProt P43628); experiment: Biacore, KIR2DL3 chip; direct binding (field of first Ab 1-6F5)
[33] = target: immobilized KIR2DS1 protein (human) (UniProt Q14954); experiment: Biacore competition, KIR2DS1 chip; competitor (second Ab) 1-4F1
[34] = target: immobilized KIR2DS1 protein (human) (UniProt Q14954); experiment: Biacore competition, KIR2DS1 chip; competitor (second Ab) 1-7F9
[35] = target: immobilized KIR2DS1 protein (human) (UniProt Q14954); experiment: Biacore competition, KIR2DS1 chip; competitor (second Ab) Pan2D
[36] = target: immobilized KIR2DS1 protein (human) (UniProt Q14954); experiment: Biacore, KIR2DS1 chip; direct binding (field of first Ab 1-7F9)
[37] = target: recombinant soluble KIR2DL1 (entire extracellular domain, produced in E. coli) (human) (UniProt P43626); experiment: Biacore SPR, antibody over immobilized KIR2DL1 (bivalent binding)
[38] = target: recombinant soluble KIR2DL3 (entire extracellular domain, produced in E. coli) (human) (UniProt P43628); experiment: Biacore SPR, antibody over immobilized KIR2DL3 (bivalent binding)
[39] = target: recombinant soluble KIR2DL1 (entire extracellular domain, produced in E. coli) (human) (UniProt P43626); experiment: Biacore competition (Example 10), KIR2DL1 chip; competitor (second Ab) 1-7F9
[40] = target: recombinant soluble KIR2DL1 (entire extracellular domain, produced in E. coli) (human) (UniProt P43626); experiment: Biacore competition (Example 10), KIR2DL1 chip; competitor (second Ab) Pan2D
[41] = target: recombinant soluble KIR2DL1 (entire extracellular domain, produced in E. coli) (human) (UniProt P43626); experiment: Biacore competition (Example 10), KIR2DL1 chip; competitor (second Ab) DF200 (self)
[42] = target: recombinant soluble KIR2DL3 (entire extracellular domain, produced in E. coli) (human) (UniProt P43628); experiment: Biacore competition (Example 10), KIR2DL3 chip; competitor (second Ab) 1-7F9
[43] = target: recombinant soluble KIR2DL3 (entire extracellular domain, produced in E. coli) (human) (UniProt P43628); experiment: Biacore competition (Example 10), KIR2DL3 chip; competitor (second Ab) Pan2D
[44] = target: recombinant soluble KIR2DL3 (entire extracellular domain, produced in E. coli) (human) (UniProt P43628); experiment: Biacore competition (Example 10), KIR2DL3 chip; competitor (second Ab) DF200 (self)
[45] = target: T1, KIR2DS3 expressed on transfected cells (human, UniProt Q14952 22-304); experiment: flow cytometry on cells transfected with KIR2DS3 (fifth column; its head is printed KIRDLS1 a second time, the legend's order gives KIR2DS3)
T1 construct: whole, on cells
Method in brief: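 Binding of human anti-KIR monoclonal antibodies to cells stably transfected with KIR2DS3 was measured by flow cytometry. Cells were incubated with the antibody at various concentrations (typically 0-50 μg/ml) in DMEM medium containing 2% FCS. They were then washed and stained with an APC-conjugated secondary antibody specific for human IgG, with all incubations and washes at 0-4° C. Cells were resuspended in PBS and analysed on a FACScalibur or FACScanto.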

Sequence of immobilized KIR2DS1 protein (human) (Q14954 22-245 limits assumed): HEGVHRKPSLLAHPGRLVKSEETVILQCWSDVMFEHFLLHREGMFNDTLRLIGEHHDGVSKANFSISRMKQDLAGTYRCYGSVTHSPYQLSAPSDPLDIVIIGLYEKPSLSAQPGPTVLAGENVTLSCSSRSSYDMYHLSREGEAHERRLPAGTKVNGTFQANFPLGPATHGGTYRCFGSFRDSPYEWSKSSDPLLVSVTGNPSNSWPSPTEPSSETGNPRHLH
T1 sequence (Q14952 22-304): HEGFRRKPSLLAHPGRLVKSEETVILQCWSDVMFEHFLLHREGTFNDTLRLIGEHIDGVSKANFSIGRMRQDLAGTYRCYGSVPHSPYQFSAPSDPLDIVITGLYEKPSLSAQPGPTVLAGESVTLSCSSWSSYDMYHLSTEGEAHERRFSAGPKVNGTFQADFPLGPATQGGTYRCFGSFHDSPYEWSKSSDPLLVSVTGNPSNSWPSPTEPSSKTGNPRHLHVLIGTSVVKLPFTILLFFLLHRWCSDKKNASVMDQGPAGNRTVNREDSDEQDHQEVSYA

murine monoclonal antibody GL183
RU, second antibody after first antibody [1]: 330 RU
RU, second antibody after first antibody [2]: 570 RU
RU, second antibody after first antibody [3]: 200 RU
% inhibition of second antibody binding [4]: 75%
% inhibition of second antibody binding [5]: 18%
% inhibition of second antibody binding [6]: 76%
% inhibition of second antibody binding [7]: 8%
% inhibition of second antibody binding [8]: 40%
RU, second antibody alone [9]: 1240 RU
RU, second antibody alone [10]: 620 RU
RU, second antibody alone [11]: 800 RU

murine monoclonal antibody EB6
RU, second antibody after first antibody [12]: 200 RU
RU, second antibody after first antibody [13]: 320 RU
RU, second antibody after first antibody [14]: 180 RU
RU, second antibody alone [15]: 460 RU
% inhibition of second antibody binding [16]: 48%
% inhibition of second antibody binding [17]: 23%
% inhibition of second antibody binding [18]: 65%
% inhibition of second antibody binding [19]: 60%
% inhibition of second antibody binding [20]: 40%
RU, second antibody alone [21]: 260 RU
RU, second antibody alone [22]: 460 RU
% inhibition of second antibody binding [23]: 57%

murine monoclonal antibody DF200
RU, second antibody after first antibody [13]: 310 RU
RU, second antibody after first antibody [24]: 290 RU
RU, second antibody after first antibody [14]: 545 RU
RU, second antibody after first antibody [1]: 210 RU
RU, second antibody after first antibody [2]: 760 RU
RU, second antibody after first antibody [25]: 760 RU
RU, second antibody after first antibody [3]: 450 RU
RU, second antibody after first antibody [26]: 1090 RU
% inhibition of second antibody binding [27]: 90%
% inhibition of second antibody binding [16]: 92%
% inhibition of second antibody binding [17]: 15%
% inhibition of second antibody binding [28]: 15%
% inhibition of second antibody binding [18]: 27%
% inhibition of second antibody binding [20]: 80%
RU, second antibody alone [21]: 350 RU
RU, second antibody alone [29]: 350 RU
RU, second antibody alone [22]: 600 RU
% inhibition of second antibody binding [4]: 75%
% inhibition of second antibody binding [5]: 16%
% inhibition of second antibody binding [30]: 4%
% inhibition of second antibody binding [6]: 62%
% inhibition of second antibody binding [31]: 20%
% inhibition of second antibody binding [8]: 75%
RU, second antibody alone [9]: 1140 RU
RU, second antibody alone [10]: 790 RU
RU, second antibody alone [32]: 800 RU
RU, second antibody alone [11]: 770 RU
% inhibition of second antibody binding [33]: 87%
% inhibition of second antibody binding [34]: 15%
% inhibition of second antibody binding [35]: 70%
RU, second antibody alone [36]: 900 RU
Kd [37]: 10.9 nM
Kd [38]: 2 nM
% inhibition of second antibody binding [39]: 17%
% inhibition of second antibody binding [40]: 85%
% inhibition of second antibody binding [41]: 80%
% inhibition of second antibody binding [42]: 80%
% inhibition of second antibody binding [43]: 50%
% inhibition of second antibody binding [44]: 85%

B1: murine monoclonal antibody NKVSF1 (Pan2D) (antibody, V domains shown)
VH: EVQLQQSGTVLARPGASVKMSCKASGYTFTSYWMHWMKQRPGQGLEWIGTIYPGNSDTNYNQKFKGKAKLTAVTSTNTAYMELSSLTNEDSAVYYCSRPTTATRSSAMDYWGQGTSVTVSS
VL: QIVLTQSPASMSASLGERVTMTCTASSSVSSSYLYWYQQKPGSSPKLWIYSTSNLASGVPARFSGSGSGTSYSLTISSMEAEDAATYYCHQYHRSPPTFGGGTKLEIKR
notes: Murine mAb, bought from Serotec (MCA2243)
binding result [45]: no binding (tested: 1 µg/ml)
